# Measurements published in the nanobody polyreactivity screen of Harvey et al. (2022).
# Experiment: yeast display, Sf9 membrane polyspecificity reagent, FACS + sequencing; frameworks hold sequencing errors
# In short: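 Galactose induction of a Saccharomyces cerevisiae BJ5465 synthetic nanobody display library ran 36–48 hours. The cells were then stained for 1 hour at 4 °C with 10% biotinylated, detergent-solubilized Sf9 membrane reagent, pulled down on streptavidin microbeads and FACS-sorted into low and high (top ~1%) gates on expression and reagent-binding fluorescence. Labels for polyreactivity follow the gate of origin.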
row,Sequence,polyreactivity (PSR sort gate)
1,QVQLVESGGGLVQAGGSLRLSCAASGSTFRYNAKGWYRQAPGKERELVAAINRGGGTDYADSVKGRFTISRDNAKNTVYLQMNSLKPEDTAVYYCAKQFVSYNRWLAYGYWGQATQVTVSS,low polyreactivity
2,QVQLVESGGGLVQAGGSLRLSCAASGSTFRYNAMGWYRPAPGKERELVAAITSGGGTNYADSVKGRFTISRDNAKNTVYLQMNSLKPEDTAVYYCAAPWGLGSELLKRDYWGQGTQVTVSS,low polyreactivity
3,QVQLVESGGGLVQAGGSLRLSCAASGSTFRYNAMGWYRQAPGKERELVAAISSGSSTNYADSVKGRFTISRDNEKNTVYFQMNSLKPVDTAVYYCAAQPGYYDDFYYWGQGTQVTVSA,low polyreactivity
4,QVQLVESGGGLVQAGGSLRLSCAASGSTFRYNAMGWYRQAPGKERELVAAITSGGGTNYADSVKGRFTISRDNAKNTVYLQMKSLKPEDTAVYYCAAPWGLGSELLKRDYWGQGTQVTVSS,low polyreactivity
5,QVQLVESGGGLVQAGGSLRLSCAASGSTFRYNAMGWYRQAPGKERELVAAITSTGDSTYYADSVKGRFTISRDNAKNTVYLQMNSLKPEDTAVYYCAARSYASPGWRYEYWGQGTQVTVSS,low polyreactivity
6,QVQLVESGGGLVQAGGSLRLSCAASGSTFRYNAMGWYRQAPGKERELVAGISYRGGTTYYADSVKGRFTISRDNAKNTVYLQMNSLKPEDTAVYYCAAGASSPGGWFYYWGQGTQVTVSS,high polyreactivity
7,QVQLVESGGGLVQAGGSLRLSCAASGSTFRYNAMGWYRQAPGKERELVAGITSSGGTYADSVKGRFTISRDNAKNTVSLQMNSLKPEDTAVYSCAAEYNWYDYWGQGTQVTVSS,low polyreactivity
8,QVQLVESGGGLVQAGGSLRLSCAASGSTFRYNAMGWYRQAPGKVRELVAAIDKRGDSTYADSVKGRFTISRDNAKNTVYLQMNSLKPEDTAVYYCAADSDSKYNYGFLWDTYEYWGQGTQVTVSS,low polyreactivity
9,QVQLVESGGGLVQAGGSLRLSCAASGSTFRYNAMGWYRQAPGKVRQLVAAIDKRGDSTYADSVKGRFTISRDNAKNTVYLQMNSLKPEDTAVYYCAADSDSKYNYGFLWDTYEYWGQGTQVTVSS,low polyreactivity
10,QVQLVESGGGLVQAGGSLRLSCAASGSTFRYNVMGWYRQAPGKERELVATISYSGGSTNYADSVKGRFTISRDNAKNTDYLQMNSLKPEDTAVYYCAARYLYPFYRYWWYDYWGQGTQVTVSS,high polyreactivity
11,QVQLVESGGGLVQAGGSLRLSCAASGSTFRYYALGWYRQAPGKERELVAAINRSGGSTYYADSVKGRFTISRDNAKNTVDLQMNSLKQEETAVYYCAAPWARHYSNPDDYWGQGTQVTVSS,high polyreactivity
12,QVQLVESGGGLVQAGGSLRLSCAASGSTFRYYALGWYRQAPGKERELVAAISTSGGRTYYADSVKGRFTISRDNAKNTVYLQMNSLKPEDTAVYYCNARESRGYAYQTWKYYYWGQGTQVTVSS,high polyreactivity
13,QVQLVESGGGLVQAGGSLRLSCAASGSTFRYYAMGWYRPAPGKERELVAAINSSGGSTYYADSVKGRFTISRDNAKNTVYLQMNSLKPEDTAVYYCATVYAYTGWLTNPREYSRYDYWGQGTQVTVSS,low polyreactivity
14,QVQLVESGGGLVQAGGSLRLSCAASGSTFRYYAMGWYRQAPGEEREFVASISSTGTSRYYADSVKGRFTISRDNAKNTVYLQMNSLKPEDTAVYYCAARYISYYGYNHWGQGTQVTVSS,high polyreactivity
15,QVQLVESGGGLVQAGGSLRLSCAASGSTFRYYAMGWYRQAPGKERELVAAISGSGGSTYYADSVKGRFTISRDNAKNTVYFQMNSLKPEDTAVYYCNKVYARLVLSYDSWGQGTQVTVSS,high polyreactivity
16,QVQLVESGGGLVQAGGSLRLSCAASGSTFRYYAMGWYRQAPGKERELVAAISSSGGSTYYADSVKGRFTISRDNAKNTVYLQLNSLKPEDTAVYYCNRGVVYRTGRFDYWGQVTQVTVSS,high polyreactivity
17,QVQLVESGGGLVQAGGSLRLSCAASGSTFRYYAMGWYRQAPGKERELVAAITSSGGSTYYADSVKGRFTISRDNAKNTVYLQMNSLKPEDTAVYYCAVAVKNWVKLNYWGQGTQVTVSS,high polyreactivity
18,QVQLVESGGGLVQAGGSLRLSCAASGSTFRYYAMGWYRQAPGKVRELVAAITSSGGSTYYADSVKGRFTISRDNEKNTVYLQMNSLKPEDTAVYYCNAVSSYREDDYWGQGTQVTVSS,high polyreactivity
19,QVQLVESGGGLVQAGGSLRLSCAASGSTFRYYAMGWYRQSPGKEREFVAAITKVGSRTSYADSVKGRFTISRDNAKNTVYLQMNSLKPEDTAVYYCATRDSPRTKNGYYYWGQGTKVTVSS,high polyreactivity
20,QVQLVESGGGLVQAGGSLRLSCAASGSTFRYYGMGWYRQAPGKERELVATINRGGRTYYADSVKGRFTISRDNAKNTVYLQMNSLKPEDTAVYYCAADYYYYVACVHDDYWGQGTQVTGSS,low polyreactivity
21,QVQLVESGGGLVQAGGSLRLSCAASGSTFRYYVMGWSRQAPGKEMELVAGISYRGGTTYYADSVKGRFTISRDNAKITVYLQMNSMKPEDTAVYYCNAGYTLYHYYSWYAFGYWGQGTQGTVSS,low polyreactivity

row,Sequence,polyreactivity (PSR sort gate)
1,QVQLVESGGGLVQAGGSLRLSCAASGSTFRYYVMGWYRQAPGKERELVAAISRTGGRTYYADSVKGRFTISRDNAKNTVYLQMNSLKPEDTAVYYCAARNVTTKRYYYWGQGTQVTVSS,high polyreactivity
2,QVQLVESGGGLVQAGGSLRLSCAASGSTFRYYVMGWYRQAPGKERELVARITSAASTNYADSVKGRFTISRDNAKNTVYLQMNSLNPEDTAVYYCAARKYGSRYRLKYDYWGQGTQVTVSS,high polyreactivity
3,QVQLVESGGGLVQAGGSLRLSCAASGSTFSAYAMGWYRQAPGKERELVAAISKRGGSTYYADSVKGRFTISRDNAKNTVYLQMNSLKPEDTAVYYCNKESLYREFDYWGQGTQVTVSS,low polyreactivity
4,QVQLVESGGGLVQAGGSLRLSCAASGSTFSAYGMGWYRQAPGKEMELVASISWNGGSTYYADSVQGRFTISGDNAKNTVYLQMNSLKPEDTAVYYCNTELVGHPDWLSWRYYYWGQGTQVTVSS,low polyreactivity
5,QVQLVESGGGLVQAGGSLRLSCAASGSTFSAYTMGWDRQAPGKERELVAAIRFDGGRTYYADSVKGRFTISRDNAKNTVYLQMNSLKPEDTAVYYCPAWQSYSYDYWGQGTQLTVSS,high polyreactivity
6,QVQLVESGGGLVQAGGSLRLSCAASGSTFSAYTMGWYRQAPGKERELVAAISYRGGSTYYADSVKGRFTISRDNAKNTVYLQMNSRKPEDTAVYYCAAERKHYGLYDYWGQGTQVTVSS,low polyreactivity
7,QVQLVESGGGLVQAGGSLRLSCAASGSTFSCNSMGWYRQAPGKERELVAAITSGGSTNYADSVKGRFTISRDNAKNTVFLQMNSLKPEDTAVYYCAKRYGYRRYYTASDYWGQGTQVTVSS,low polyreactivity
8,QVQLVESGGGLVQAGGSLRLSCAASGSTFSDNAMGWYRQAPGKERELVAAISSGGSTNYADSVKGRFTISRDNAKNTVYLQMNSLKPEDTAVYYCAREYYSRRYDYWGQGTQVTVSS,low polyreactivity
9,QVQLVESGGGLVQAGGSLRLSCAASGSTFSDYAMGWYRPAPGKERELVAAISSDGSTYYADSVKGRFTISRDNANNTVYLQMNILKPEDTAVYYCAKDVILVWPYATGRDYCGQGTQVTVSS,low polyreactivity
10,QVQLVESGGGLVQAGGSLRLSCAASGSTFSDYAMGWYRQAPGKERELVAAISSSGGRTYYADSVKGRFTISRDNAKNTVYLQMNSLKPEDTAVYYCNAYYIYILYGGQTYTGDYWGQGTQVTVSS,high polyreactivity
11,QVQLVESGGGLVQAGGSLRLSCAASGSTFSDYAMGWYRQEPGKERELVAAISSDGSTYYADSVKGRYTISRDNAKNTVYLQMNSLKPEDTAVYYCAKDVILVWPYATGRDFWGQGTQVTVSS,low polyreactivity
12,QVQLVESGGGLVQAGGSLRLSCAASGSTFSFNAKGWYRQAPGKARELVAAITGGDGTNYADSVKGRFTISRDNAKNTVYLQMNSLKPEDTAVNYCAADQWGSTEDYWFTYGYWGQGTQVTVSS,low polyreactivity
13,QVQLVESGGGLVQAGGSLRLSCAASGSTFSFYAMGWYRQAPGKERELVAAIDSGGRTKYADSVKGRFTISRDNAKNTVYLLMNSLKPEDTAVYYCAAVFRGWWLYDYWGQGTQVTVSS,low polyreactivity
14,QVQLVESGGGLVQAGGSLRLSCAASGSTFSFYAMGWYRQAPGKERELVAAITWTTGSTYADSVKGRFTISRDNAKNTVYLQMNSLKPEDTAVYYCAAKKFRRSRDSYYWGPGTQVTVSS,high polyreactivity
15,QVQLVESGGGLVQAGGSLRLSCAASGSTFSFYAMGWYRQAPGKERELVAVFTRGGSTYYADSVKGRFTISRDNAKNTVYLQMNSLKPEDTAVYYCAARSTSNGQRSLHYGYWGQGTQVTVSS,low polyreactivity
16,QVQLVESGGGLVQAGGSLRLSCAASGSTFSFYAMGWYRQAPGQERELVAAIRAGTRTYYADSVKGRFTISRDNAKNTVYLQMNSLKPEDTAVYYCAATRRRYPYYYWGQGTQVTVSS,high polyreactivity
17,QVQLVESGGGLVQAGGSLRLSCAASGSTFSGKAMGWYRQAPGKERELVAAITSSGGSTYYADSVKGRFTISRDNAKNTVYLQMNSLKPEDTAVYYCAAKSRRTRRSYYWGQGTQVTVSS,high polyreactivity
18,QVQLVESGGGLVQAGGSLRLSCAASGSTFSGNAMGWYRQAPGKEMEMVAAISGRGGSTYYADSVKGRFTISRDNAKNTVFLQMKSLKPEDTAVYYCAKRRNTRGAYGYWGQGTQVTVSS,high polyreactivity
19,QVQLVESGGGLVQAGGSLRLSCAASGSTFSGNAMGWYRQAPGKEREFVAAIFSDGSTYYADSVKGRFTISRDNAKNTVYLQMNSLKPEDTAVYYCAAAWYEPATQTGYFEFDYWGQGTQVTVSS,low polyreactivity
20,QVQLVESGGGLVQAGGSLRLSCAASGSTFSGNAMGWYRQAPGKERELVAAINSVRTYYADSVKGRFTISRDNAKNTVYLQMNSLKPEDTAVYYCAARQGYSSRYPAKGYYWGQGTQVTVSS,high polyreactivity
